Data as given in the supplement of paper PMC9732359.
± gives the uncertainty stated by the source.

Assay: protein stability index of a GFP-peptide fusion (yeast GPS) (PSI 1-4); higher = more stable; sorted into four equal gates, so the index is relative within each strain
How it was run: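 Yeast carrying a pooled library were grown to mid-log phase in leucine-free medium. Each library plasmid expresses Cherry and has a tiled 17-residue yeast protein peptide fused downstream of GFP. Cells were sorted into four equal gates by GFP/Cherry ratio, and plasmids from each gate were PCR-amplified, Illumina-sequenced and assigned to strains by barcode. Summing, across gates, the read frequency times the gate number gave each peptide's protein stability index.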

| Sequence | protein stability index (doa10∆) | protein stability index (pdr5∆) | protein stability index (san1∆) | protein stability index (ubr1∆) |
| --- | --- | --- | --- | --- |
| NMMDAISFVLGVRSNHL [SMC1] | 2.28 ± 0.063 | 2.58 ± 0.079 | 2.77 ± 0.067 | 2.66 ± 0.064 |
| AKTLTYPEVVTPYNIDR [RPO21] | 2.17 ± 0.074 | 2.35 ± 0.078 | 1.94 ± 0.073 | 2.05 ± 0.074 |
| AGENAPSIVFIDEIDAI [RPT2] | 2.03 ± 0.17 | 2.46 ± 0.21 | 1.74 ± 0.18 | 1.86 ± 0.14 |
| TKHLMPQDLTFNAGSNP [RPB7] |  | 3.62 ± 0.2 | 3.22 ± 0.26 | 2.79 ± 0.24 |
| ECENEIKTKQMSLKKCQ [SMC2] | 2.92 ± 0.25 | 3.28 ± 0.1 | 3.22 ± 0.076 | 3.32 ± 0.058 |
| TMMTVEEKPDVTYSDVG [RPT1] | 2.58 ± 0.1 | 2.42 ± 0.068 | 1.83 ± 0.14 | 2.3 ± 0.055 |
| TMRKISSETDDDHSQVI [DSN1] | 2.91 ± 0.048 | 3.24 ± 0.064 | 3.1 ± 0.035 | 3.15 ± 0.055 |
| DVDMEDRNLTEFDSTDT [RRI1] | 2.93 ± 0.12 | 3.09 ± 0.12 | 2.71 ± 0.13 | 3.01 ± 0.055 |
| EAKKFEPTYRLVRYGLA [RPS24A] | 2.83 ± 0.14 | 3.11 ± 0.095 | 2.79 ± 0.13 | 2.88 ± 0.049 |
| EKAKEMIRLLGSESDDS [ECM29] | 2.51 ± 0.2 | 2.13 ± 0.11 |  | 1.53 ± 0.14 |
| WTEASSSGAGTVKLYLP [ECM29] | 2.05 ± 0.052 | 1.82 ± 0.047 | 2.09 ± 0.067 | 2.02 ± 0.05 |
| LPKLNLPKYQTIQYDPP [SNF5] | 2.53 ± 0.22 | 2.6 ± 0.11 | 2.31 ± 0.16 | 2.11 ± 0.084 |
| ISKSLTFSQESGLMVIL [RRI2] | 2.23 ± 0.095 | 2.33 ± 0.11 | 2.29 ± 0.094 | 2.27 ± 0.072 |
| ESNDRINKIVEILTNQQ [YGR119C/NUP57] |  | 2.77 ± 0.23 | 2.57 ± 0.13 | 2.23 ± 0.085 |
| TPKITAAEKSFKPPKNK [SEC65] | 2.9 ± 0.28 | 3.14 ± 0.2 | 3.04 ± 0.12 | 3.14 ± 0.12 |
| TQGGNVNLDNTAVGKAA [RPT5] | 3.11 ± 0.053 | 3.28 ± 0.052 | 3.277 ± 0.032 | 3.17 ± 0.038 |
| FSRRFDCRDVYCHEKEL [CSN9] |  |  |  | 2.99 ± 0.19 |
| IFLSKENSAVAAKEGLA [COR1] | 1.48 ± 0.058 | 2.19 ± 0.072 | 1.95 ± 0.14 | 1.6 ± 0.062 |
| PGNRNADNVDKILEQFE [FAS2] | 1.63 ± 0.11 | 1.53 ± 0.18 | 2.5 ± 0.19 | 2.5 ± 0.087 |

| Sequence | protein stability index (doa10∆) | protein stability index (pdr5∆) | protein stability index (san1∆) | protein stability index (ubr1∆) |
| --- | --- | --- | --- | --- |
| MTMLTPNYLHLVSSYLN [YML103C/NUP188] | 1.82 ± 0.039 | 1.66 ± 0.035 | 1.69 ± 0.051 | 1.4 ± 0.032 |
| PLKTELEANGRSLEKVN [SSN2] | 3.19 ± 0.12 | 3.34 ± 0.08 | 3.22 ± 0.1 | 3.55 ± 0.08 |
| KVTQMTPAPKISYKKGA [RPL36B] | 3.12 ± 0.13 | 3.27 ± 0.11 | 3.31 ± 0.061 | 3.21 ± 0.1 |
| SHTSLVKIGKFIPHGLK [SRB8] | 1.71 ± 0.053 | 1.73 ± 0.045 | 1.97 ± 0.084 | 1.55 ± 0.054 |
| QWFLQYQNQFVEFCRNI [YML103C/NUP188] | 2.48 ± 0.17 | 1.86 ± 0.12 | 1.89 ± 0.17 | 2.24 ± 0.1 |
| EYKSLFVVGVDNVSSQQ [RPP0] | 3.22 ± 0.055 | 2.79 ± 0.067 | 3.29 ± 0.091 | 3.24 ± 0.053 |
| QRSRRKFSERRKALPKE [DSN1] | 3.47 ± 0.22 |  | 3.52 ± 0.099 |  |
| VAAFVNNYPNVELTYSL [BRR2] | 2.61 ± 0.11 | 2.82 ± 0.087 | 2.74 ± 0.082 | 2.9 ± 0.087 |
| GSNGELFGGRHYLFNTF [SWP82] |  | 2.97 ± 0.29 |  |  |
| HCDKCSVVLTLQAFGES [RPB3] | 3.1 ± 0.15 | 3.19 ± 0.14 | 2.47 ± 0.19 | 2.6 ± 0.17 |
| VVDGTVVSCSQHGFEVQ [RPB7] | 3.08 ± 0.071 | 3.11 ± 0.058 | 3.13 ± 0.068 | 3.28 ± 0.07 |
| LYKIFSYALSMEKDKLK [SNU114] | 1.84 ± 0.097 | 1.33 ± 0.052 | 1.63 ± 0.17 | 1.65 ± 0.049 |
| EETDEVSSESSDEAIIP [SIR3] | 2.93 ± 0.068 | 2.52 ± 0.056 | 2.73 ± 0.065 | 2.82 ± 0.043 |
| KNAGLGFKTPKTAIEGS [RPS11A] | 3.01 ± 0.047 | 3.12 ± 0.055 | 3.11 ± 0.035 | 3.13 ± 0.041 |
| MGDNSQLDFTEFDEQYG [SNF2] | 3.31 ± 0.057 | 3.15 ± 0.067 | 3.31 ± 0.052 | 3.14 ± 0.045 |
| TVSPTQDKDAIRKQPDD [SIR2] | 2.99 ± 0.076 | 3.11 ± 0.087 | 2.99 ± 0.067 | 2.9 ± 0.096 |
| LGLKFDDLIAEENPIMQ [QCR7] | 2.46 ± 0.28 | 2.21 ± 0.14 | 2.32 ± 0.16 | 1.81 ± 0.079 |
| EITSVLSNLHESNKRYR [SNF12] | 3.1 ± 0.085 | 3.05 ± 0.071 | 2.94 ± 0.054 | 3.08 ± 0.052 |
| EKVFNAYPAAREQFLNA [FAS1] | 3.16 ± 0.084 | 3.19 ± 0.094 | 3.1 ± 0.077 | 3.22 ± 0.053 |

| Sequence | protein stability index (doa10∆) | protein stability index (pdr5∆) | protein stability index (san1∆) | protein stability index (ubr1∆) |
| --- | --- | --- | --- | --- |
| CGDSIICNTLNIAKDLK [SMC1] | 1.78 ± 0.079 | 1.66 ± 0.067 | 1.42 ± 0.12 | 2.12 ± 0.075 |
| LGNDIPHDLIIGTADIF [BRR2] | 2.6 ± 0.055 | 2.76 ± 0.068 | 2.84 ± 0.059 | 2.86 ± 0.047 |
| VKIMRDPAKSRTGPKAL [RPS3] | 3.35 ± 0.21 | 3.33 ± 0.12 | 3.06 ± 0.1 | 3.52 ± 0.11 |
| NNKNKRVTGAGGQQRRM [RPC53] |  | 2.78 ± 0.2 |  | 3.33 ± 0.073 |
| VEQTAEVTIEDALKVVL [RPS12] | 3.34 ± 0.079 | 3.36 ± 0.078 | 3.19 ± 0.049 | 3.21 ± 0.045 |
| IQPTAKVVYIQRRSWRQ [DIS3] | 1.52 ± 0.1 | 1.48 ± 0.072 | 1.31 ± 0.13 | 1.16 ± 0.12 |
| DPTKVTEFEFYLLEELE [SSN8] | 3.19 ± 0.065 | 3.28 ± 0.058 | 3.21 ± 0.068 | 3.25 ± 0.049 |
| KIKHGSVTEIPLKLSGE [YMR129W/POM152] | 2.77 ± 0.07 | 2.93 ± 0.057 | 2.58 ± 0.072 | 2.97 ± 0.086 |
| YEDSGSTYKHDRGIANI [SRB4] | 3.29 ± 0.13 | 3.29 ± 0.14 | 3.25 ± 0.097 | 3.36 ± 0.096 |
| VKSKIQDKEGIPPDQQR [RPS31] | 3.08 ± 0.076 | 3.48 ± 0.075 | 3.41 ± 0.051 | 3.44 ± 0.061 |
| GLTLSTTNLDIDLLTFQ [RPP1] | 2.94 ± 0.067 | 3.04 ± 0.06 | 3.16 ± 0.056 | 2.86 ± 0.05 |
| KREGRNELQEERLKVPI [POP6] |  | 3.37 ± 0.2 |  |  |
| KASKEIKKVICGAWEPA [SIR3] | 2.15 ± 0.25 |  |  | 2.67 ± 0.11 |
| SFVGDYMHDTELNYFVG [GRR1] | 3.1 ± 0.068 | 3.04 ± 0.09 | 3.35 ± 0.061 | 3.22 ± 0.067 |
| GRQFCNRLSRIHLYMLT [YLR018C/POM34] | 1.68 ± 0.051 | 1.87 ± 0.05 | 1.69 ± 0.1 | 1.8 ± 0.04 |
| RQNRRPELGDKFSSRHG [RET1] |  | 3.4 ± 0.3 |  | 2.63 ± 0.21 |
| IFKGIGGNFKDLSTLVH [GAL11] | 2.07 ± 0.071 | 1.74 ± 0.042 | 1.83 ± 0.073 | 1.85 ± 0.067 |
| NEDMVRRANFYKENEAM [SNF12] | 3.33 ± 0.11 | 3.48 ± 0.087 | 3.39 ± 0.057 | 3.48 ± 0.1 |
